Consider three molecules from paper doi:10.1101/2025.08.05.668721 (bioRxiv, 2025).

The data set “SEC” deals with the molecule itself. Nature of the data set: SEC.
The data set “crystal structure” concerns the molecule itself. Nature of the data set: crystal structure.
For data set [1], the target named is T1, FGL-1 Fibrinogen-like domain (FD), dimer, C-terminal Avi-tag, biotinylated (human), Q08830.
T1 chain: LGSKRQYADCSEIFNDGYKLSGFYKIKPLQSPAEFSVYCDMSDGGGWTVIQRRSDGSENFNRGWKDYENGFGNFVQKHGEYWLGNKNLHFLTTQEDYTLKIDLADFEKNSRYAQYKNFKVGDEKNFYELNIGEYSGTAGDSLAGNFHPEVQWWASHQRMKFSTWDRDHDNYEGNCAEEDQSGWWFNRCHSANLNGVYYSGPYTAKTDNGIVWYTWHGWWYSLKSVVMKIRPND
Nature of the data set: BLI.

Data set [2] addresses T2, FGL-1 Fibrinogen-like domain (FD), monomer, C-terminal Avi-tag, biotinylated (human), Q08830.
T2 chain: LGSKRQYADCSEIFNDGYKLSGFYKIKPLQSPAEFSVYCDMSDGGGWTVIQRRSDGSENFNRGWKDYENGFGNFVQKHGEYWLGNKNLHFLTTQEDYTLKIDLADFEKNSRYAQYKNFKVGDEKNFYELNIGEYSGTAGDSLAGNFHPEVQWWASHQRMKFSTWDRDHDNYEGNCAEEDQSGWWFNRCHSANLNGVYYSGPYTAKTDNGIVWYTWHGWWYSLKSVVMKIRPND
Nature of the data set: BLI.

B1: FGL-1 Fibrinogen-like domain (FD), dimer, C-terminal Avi-tag, biotinylated (domain or fragment, human, UniProt Q08830 74-306, looked up)
chain: LGSKRQYADCSEIFNDGYKLSGFYKIKPLQSPAEFSVYCDMSDGGGWTVIQRRSDGSENFNRGWKDYENGFGNFVQKHGEYWLGNKNLHFLTTQEDYTLKIDLADFEKNSRYAQYKNFKVGDEKNFYELNIGEYSGTAGDSLAGNFHPEVQWWASHQRMKFSTWDRDHDNYEGNCAEEDQSGWWFNRCHSANLNGVYYSGPYTAKTDNGIVWYTWHGWWYSLKSVVMKIRPND
modifications: biotin on the Avi-tag (BirA)
As for B1, the “stoichiometry N” value in the data set “SEC” is 2.

B2: FGL-1 FD dimer (without Avi-tag) (domain or fragment, human, UniProt Q08830 74-306, looked up)
chain: LGSKRQYADCSEIFNDGYKLSGFYKIKPLQSPAEFSVYCDMSDGGGWTVIQRRSDGSENFNRGWKDYENGFGNFVQKHGEYWLGNKNLHFLTTQEDYTLKIDLADFEKNSRYAQYKNFKVGDEKNFYELNIGEYSGTAGDSLAGNFHPEVQWWASHQRMKFSTWDRDHDNYEGNCAEEDQSGWWFNRCHSANLNGVYYSGPYTAKTDNGIVWYTWHGWWYSLKSVVMKIRPND
B2: the binding result in the data set “crystal structure” is given as “binds”.

B3: LAG-3 (soluble analyte in BLI), P18627 23-450 (receptor)
chain: LQPGAEVPVVWAQEGAPAQLPCSPTIPLQDLSLLRRAGVTWQHQPDSGPPAAAPGHPLAPGPHPAAPSSWGPRPRRYTVLSVGPGGLRSGRLPLQPRVQLDERGRQRGDFSLWLRPARRADAGEYRAAVHLRDRALSCRLRLRLGQASMTASPPGSLRASDWVILNCSFSRPDRPASVHWFRNRGQGRVPVRESPHHHLAESFLFLPQVSPMDSGPWGCILTYRDGFNVSIMYNLTVLGLEPPTPLTVYAGAGSRVGLPCRLPAGVGTRSFLTAKWTPPGGGPDLLVTGDNGDFTLRLEDVSQAQAGTYTCHIHLQEQQLNATVTLAIITVTPKSFGSPGSLGKLLCEVTPVSGQERFVWSSLDTPSQRSFSGPWLEAQEAQLLSQPWQCQLYQGERLLGAAVYFTELSSPGAQRSGRAPGALPAGHL
modifications: not checked
For B3, the Kd worked out at 16.8 nM in data set [1] and 740 nM in data set [2].
